Columns and labels:
[1] = biological target: T1, Histidine-tagged wild-type MntC (pET-19b) (Staphylococcus aureus); assay: BLI; conditions: both partners purified
T1 construct: source: E. coli BL21(DE3), purified (HisPur Ni-NTA Agarose, size-exclusion chromatography); not shown: His-tag, N-terminal, kept
T1 chain: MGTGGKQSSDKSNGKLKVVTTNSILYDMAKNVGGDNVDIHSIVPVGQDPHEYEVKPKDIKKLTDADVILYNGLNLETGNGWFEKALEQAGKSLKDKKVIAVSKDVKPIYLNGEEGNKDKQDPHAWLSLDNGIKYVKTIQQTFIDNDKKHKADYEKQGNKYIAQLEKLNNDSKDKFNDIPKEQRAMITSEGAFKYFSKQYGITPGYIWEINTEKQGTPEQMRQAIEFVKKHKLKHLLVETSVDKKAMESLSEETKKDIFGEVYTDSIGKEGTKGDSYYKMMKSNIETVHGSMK

[2] = biological target: T2, Staphylococcus aureus manganese transporter protein MntC, wild type, recombinant (Staphylococcus aureus); assay: ITC; conditions: both partners purified
T2 construct: also called wild type MntC; full length MntC; source: recombinant; cloning, expression and purification previously described [3]
T2 chain: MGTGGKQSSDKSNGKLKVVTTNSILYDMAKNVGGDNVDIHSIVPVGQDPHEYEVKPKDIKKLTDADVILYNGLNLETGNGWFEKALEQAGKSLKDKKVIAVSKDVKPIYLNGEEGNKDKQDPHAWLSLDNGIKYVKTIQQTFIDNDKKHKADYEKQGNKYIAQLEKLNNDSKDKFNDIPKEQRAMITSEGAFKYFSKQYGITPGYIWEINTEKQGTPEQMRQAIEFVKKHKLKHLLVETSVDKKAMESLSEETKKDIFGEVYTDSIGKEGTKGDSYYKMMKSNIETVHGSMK

B1: monoclonal antibody mAB 305-78-7 (intact antibody, interference group 2) (antibody, V domains shown)
VH: QVQLQQSGAELARPGASVKMSCKASGYTFTRYTMHWVQQRPGQGLEWIGYINPSSDYTKYNQKFKDKATMTADKSSSTAYMQLSSLTSEDSAVYYCARKEDVGYWYFDFWGTGTTVTVSS
VL: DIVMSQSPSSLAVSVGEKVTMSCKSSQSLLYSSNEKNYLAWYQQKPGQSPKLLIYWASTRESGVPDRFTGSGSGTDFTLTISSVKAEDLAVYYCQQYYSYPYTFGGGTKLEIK
notes: source: generation previously described [3]
- Kd [1]: 1.2 nM
- koff [1]: 0.00024 s⁻¹
- kon [1]: 220000 M⁻¹ s⁻¹
- Kd [2]: 1.2 nM
- dH [2]: -19.9 kcal/mol

Reference: paper PMC5045189, “High Resolution Mapping of Bactericidal Monoclonal Antibody Binding Epitopes on Staphylococcus aureus Antigen MntC” (PLoS Pathogens, 2016)
